The target in the data set is Cg-Dss1 (full-length, wild type) (Candida glabrata, UniProt Q6FJE0 24-923). In words: footprinting (RNase I protection); 2 mM ATP, 3 mM MgCl2; RNase I footprinting: 100 nM RNA, 150 nM protein, 20 mM Tris pH 7.4, 50 mM NaCl, 3 mM MgCl2, with or without 2 mM ATP, 30 C; EDTA added before RNase I. Crystal. The note with it: protein: recombinant; tags: His6-MBP removed by TEV; label: 32P body label.

B1: L1 RNA (79 nt) (structured_RNA)
RNA: GGAACUCCAUAUAUGGGCUAUGAACUAAUGACCCCGUAAUUGAUUACUAUUAGCCCGGGCAAUGUGCACAUGUACCCUA
Turning to B1, the binding result is listed as “binds”.

Source of the values: article PMC5758563, “Structural analysis of mtEXO mitochondrial RNA degradosome reveals tight coupling of nuclease and helicase components”.
